In patent US20020165156A1 (Biogen, published 2002):

Target: T1, soluble flag-hBAFF (amino acids L83-L285) (human, UniProt Q9Y275 83-285)
T1 construct: range 83-285; also called FLAG-tagged human BAFF; not shown: FLAG tag
Experiment: plate assay, 0.5 ug/ml FLAG-hBAFF on pJST535-transfected 293EBNA cells, anti-FLAG M2 and alkaline phosphatase / fast red
Experimental: Full-length human BAFF-R was generated from BJAB polyA+RNA using the SuperscriptII preamplification kit (Life Technologies) to generate the cDNA template and amplified by Pfu1 using primers complementary to the 5′ and 3′ coding sequences of BAFF-R. The PCR product was cloned into CH269, a derivative of pCEP4 (Invitrogen). The resultant clone was termed pJST535. Human embryonic kidney cells containing the EBNA-1 gene (293EBNA) were seeded into 6 well plates coated with fibronectin and transfected by lipofectamine (Life Technologies) with either pJST535 at various dilutions or CH269 as a background control. At 48 hrs post transfection, transfected cells were assayed for their ability to bind soluble flag-hBAFF(amino acids L83-L285) as follows. All incubations were at room temperature. Conditioned media was aspirated from the wells and the cells washed with BHA buffer (20 mM HEPES pH7.0, 0.5mg/ml BSA, 0.1% NaN3) and incubated with 0.5 ug/ml FLAG-hBAFF diluted in PBS containing 1 mM MgCl2, 1 mM CaCl2 and 0.1% NaN3. After an 1 hr. incubation, the BAFF solution was removed and the cells were washed with BHA. The cells were next incubated for 30 min. in a PBS solution containing 1 ug/ml of the anti-FLAG monoclonal antibody, M2 (Sigma). This solution was aspirated and the cells were washed with BHA. […]

T1 sequence (Q9Y275 83-285 limits assumed): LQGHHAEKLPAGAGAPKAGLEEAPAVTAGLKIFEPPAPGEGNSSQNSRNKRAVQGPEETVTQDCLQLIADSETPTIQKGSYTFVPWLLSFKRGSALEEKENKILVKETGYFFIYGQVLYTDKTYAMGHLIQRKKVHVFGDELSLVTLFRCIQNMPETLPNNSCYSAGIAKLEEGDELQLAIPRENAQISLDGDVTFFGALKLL

B1: full-length human BAFF-R (BCMA) expressed on 293EBNA cells transfected with pJST535 (receptor)
chain: MLQMAGQCSQNEYFDSLLHACIPCQLRCSSNTPPLTCQRYCNASVTNSVKGTNAILWTCLGLSLIISLAVFVLMFLLRKISSEPLKDEFKNTGSGLLGMANIDLEKSRTGDEIILPRGLEYTVEECTCEDCIKSKPKVDSDHCFPLPAMEEGATILVTTKTNDYCKSLPAALSATEIEKSISAR
B1: binds.
